Assay results reported in patent publication US20080145369A1.

Tests used:
[1] = biological target: PCDGF cell surface receptors on the mink lung epithelial cell line CCL64 (mink); assay: Scatchard analysis of 125I-PCDGF binding to CCL64 cells, low affinity class
[2] = biological target: PCDGF cell surface receptors on the mink lung epithelial cell line CCL64 (mink); assay: Scatchard analysis of 125I-PCDGF binding to CCL64 cells, high affinity class
[3] = biological target: PCDGF receptor on breast cancer cells (MCF-7; AG-BC1); assay: PCDGF binding to AG-BC1 cells against MCF-7 cells; method not stated

For “PC-cell-derived growth factor (PCDGF) (ligand)”, the Kd [1] was 3.9 nM, the Kd [2] was 0.043 nM and the fold increase in binding against MCF-7 cells [3] was 10 fold.
